Data as given in the Human Domainome abundance scans (Beltran et al. 2025).
± gives the uncertainty stated by the source.

B1: Protein C-ets-1, residues 55 to 135; numbered along this chain, P14921 (parent)
chain: GFTKEQQRLGIPKDPRQWTETHVRDWVMWAVNEFSLKGVDFQKFCMNGAALCALGKDCFLELAPDFVGDILWEHLEILQKE

Variants of: B1
Experiment: abundance fitness (aPCA) (normalised: wild type 0, dead -1); higher = more abundant; growth selection in yeast, the domain comes from the species named
Conditions: Homo sapiens

**Q.** With GFTKEQQRLGIPKDPRQWTETHVRDWVMWAVNEFSLKGVDFQKFCMNGAALCFLGKDCFLELAPDFVGDILWEHLEILQKE as the variant, how does the abundance fitness read?
**A.** The abundance fitness was -0.655 ± 0.066.

**Q.** For GFTKEQQRLGIPKDPRQWTETHVRDWVMWAVNEFSLKGVDFQKFCMNGAALCELGKDCFLELAPDFVGDILWEHLEILQKE, which abundance fitness is on record?
**A.** Its abundance fitness is 0.052 ± 0.044.

**Q.** For GFTKEQQRLGIPKDPRQWTETHVRDWVMWAVNEFSLKGVDFQKFCMNGAALCPLGKDCFLELAPDFVGDILWEHLEILQKE, which abundance fitness is on record?
**A.** The abundance fitness was -0.943 ± 0.082.

**Q.** For GFTKEQQRLGIPKDPRQWTETHVRDWVMWAVNEFSLKGVDFQKFCMNGAALCWLGKDCFLELAPDFVGDILWEHLEILQKE, which abundance fitness is on record?
**A.** The abundance fitness was -0.583 ± 0.045.

**Q.** With GFTKEQQRLGIPKDPRQWTETHVRDWVMWAVNEFSLKGVDFQKFCMNGAALCSLGKDCFLELAPDFVGDILWEHLEILQKE as the variant, how does the abundance fitness read?
**A.** Its abundance fitness is 0.016 ± 0.031.

**Q.** With GFTKEQQRLGIPKDPRQWTETHVRDWVMWAVNEFSLKGVDFQKFCMNGAALCKLGKDCFLELAPDFVGDILWEHLEILQKE as the variant, how does the abundance fitness read?
**A.** The abundance fitness was -0.021 ± 0.048.

**Q.** For GFTKEQQRLGIPKDPRQWTETHVRDWVMWAVNEFSLKGVDFQKFCMNGAALCQLGKDCFLELAPDFVGDILWEHLEILQKE, which abundance fitness is on record?
**A.** Its abundance fitness is -0.097 ± 0.046.

**Q.** For GFTKEQQRLGIPKDPRQWTETHVRDWVMWAVNEFSLKGVDFQKFCMNGAALCGLGKDCFLELAPDFVGDILWEHLEILQKE, which abundance fitness is on record?
**A.** The abundance fitness was -0.028 ± 0.023.

**Q.** Which abundance fitness does the source give for GFTKEQQRLGIPKDPRQWTETHVRDWVMWAVNEFSLKGVDFQKFCMNGAALCMLGKDCFLELAPDFVGDILWEHLEILQKE here?
**A.** Its abundance fitness is -0.09 ± 0.052.

**Q.** With GFTKEQQRLGIPKDPRQWTETHVRDWVMWAVNEFSLKGVDFQKFCMNGAALCARGKDCFLELAPDFVGDILWEHLEILQKE as the variant, how does the abundance fitness read?
**A.** The abundance fitness was -0.238 ± 0.028.

**Q.** Which abundance fitness does the source give for GFTKEQQRLGIPKDPRQWTETHVRDWVMWAVNEFSLKGVDFQKFCMNGAALCAPGKDCFLELAPDFVGDILWEHLEILQKE here?
**A.** The abundance fitness was -0.775 ± 0.072.

**Q.** Which abundance fitness does the source give for GFTKEQQRLGIPKDPRQWTETHVRDWVMWAVNEFSLKGVDFQKFCMNGAALCAIGKDCFLELAPDFVGDILWEHLEILQKE here?
**A.** Its abundance fitness is -0.078 ± 0.064.

**Q.** Which abundance fitness does the source give for GFTKEQQRLGIPKDPRQWTETHVRDWVMWAVNEFSLKGVDFQKFCMNGAALCAYGKDCFLELAPDFVGDILWEHLEILQKE here?
**A.** The abundance fitness was -0.292 ± 0.033.

**Q.** For GFTKEQQRLGIPKDPRQWTETHVRDWVMWAVNEFSLKGVDFQKFCMNGAALCAMGKDCFLELAPDFVGDILWEHLEILQKE, which abundance fitness is on record?
**A.** Its abundance fitness is -0.022 ± 0.05.

**Q.** Which abundance fitness does the source give for GFTKEQQRLGIPKDPRQWTETHVRDWVMWAVNEFSLKGVDFQKFCMNGAALCAQGKDCFLELAPDFVGDILWEHLEILQKE here?
**A.** Its abundance fitness is -0.299 ± 0.056.

**Q.** With GFTKEQQRLGIPKDPRQWTETHVRDWVMWAVNEFSLKGVDFQKFCMNGAALCADGKDCFLELAPDFVGDILWEHLEILQKE as the variant, how does the abundance fitness read?
**A.** The abundance fitness was -0.791 ± 0.092.

**Q.** Which abundance fitness does the source give for GFTKEQQRLGIPKDPRQWTETHVRDWVMWAVNEFSLKGVDFQKFCMNGAALCAKGKDCFLELAPDFVGDILWEHLEILQKE here?
**A.** The abundance fitness was -0.102 ± 0.05.

**Q.** With GFTKEQQRLGIPKDPRQWTETHVRDWVMWAVNEFSLKGVDFQKFCMNGAALCANGKDCFLELAPDFVGDILWEHLEILQKE as the variant, how does the abundance fitness read?
**A.** The abundance fitness was -0.302 ± 0.059.

**Q.** With GFTKEQQRLGIPKDPRQWTETHVRDWVMWAVNEFSLKGVDFQKFCMNGAALCAHGKDCFLELAPDFVGDILWEHLEILQKE as the variant, how does the abundance fitness read?
**A.** Its abundance fitness is -0.598 ± 0.078.

**Q.** Which abundance fitness does the source give for GFTKEQQRLGIPKDPRQWTETHVRDWVMWAVNEFSLKGVDFQKFCMNGAALCAEGKDCFLELAPDFVGDILWEHLEILQKE here?
**A.** The abundance fitness was -0.614 ± 0.051.

**Q.** With GFTKEQQRLGIPKDPRQWTETHVRDWVMWAVNEFSLKGVDFQKFCMNGAALCAVGKDCFLELAPDFVGDILWEHLEILQKE as the variant, how does the abundance fitness read?
**A.** Its abundance fitness is -0.254 ± 0.032.

**Q.** For GFTKEQQRLGIPKDPRQWTETHVRDWVMWAVNEFSLKGVDFQKFCMNGAALCAWGKDCFLELAPDFVGDILWEHLEILQKE, which abundance fitness is on record?
**A.** The abundance fitness was -0.582 ± 0.051.

**Q.** Which abundance fitness does the source give for GFTKEQQRLGIPKDPRQWTETHVRDWVMWAVNEFSLKGVDFQKFCMNGAALCATGKDCFLELAPDFVGDILWEHLEILQKE here?
**A.** The abundance fitness was -0.33 ± 0.042.

**Q.** Which abundance fitness does the source give for GFTKEQQRLGIPKDPRQWTETHVRDWVMWAVNEFSLKGVDFQKFCMNGAALCAAGKDCFLELAPDFVGDILWEHLEILQKE here?
**A.** Its abundance fitness is -0.338 ± 0.032.

**Q.** Which abundance fitness does the source give for GFTKEQQRLGIPKDPRQWTETHVRDWVMWAVNEFSLKGVDFQKFCMNGAALCACGKDCFLELAPDFVGDILWEHLEILQKE here?
**A.** Its abundance fitness is -0.666 ± 0.079.

**Q.** With GFTKEQQRLGIPKDPRQWTETHVRDWVMWAVNEFSLKGVDFQKFCMNGAALCASGKDCFLELAPDFVGDILWEHLEILQKE as the variant, how does the abundance fitness read?
**A.** Its abundance fitness is -0.445 ± 0.032.

**Q.** Which abundance fitness does the source give for GFTKEQQRLGIPKDPRQWTETHVRDWVMWAVNEFSLKGVDFQKFCMNGAALCAGGKDCFLELAPDFVGDILWEHLEILQKE here?
**A.** Its abundance fitness is -0.229 ± 0.027.

**Q.** With GFTKEQQRLGIPKDPRQWTETHVRDWVMWAVNEFSLKGVDFQKFCMNGAANCALGKDCFLELAPDFVGDILWEHLEILQKE as the variant, how does the abundance fitness read?
**A.** The abundance fitness was -0.718 ± 0.17.

**Q.** With GFTKEQQRLGIPKDPRQWTETHVRDWVMWAVNEFSLKGVDFQKFCMNGAAPCALGKDCFLELAPDFVGDILWEHLEILQKE as the variant, how does the abundance fitness read?
**A.** The abundance fitness was -0.794 ± 0.059.

**Q.** With GFTKEQQRLGIPKDPRQWTETHVRDWVMWAVNEFSLKGVDFQKFCMNGAATCALGKDCFLELAPDFVGDILWEHLEILQKE as the variant, how does the abundance fitness read?
**A.** Its abundance fitness is -0.961 ± 0.11.

**Q.** For GFTKEQQRLGIPKDPRQWTETHVRDWVMWAVNEFSLKGVDFQKFCMNGAAYCALGKDCFLELAPDFVGDILWEHLEILQKE, which abundance fitness is on record?
**A.** Its abundance fitness is -0.94 ± 0.21.

**Q.** For GFTKEQQRLGIPKDPRQWTETHVRDWVMWAVNEFSLKGVDFQKFCMNGAAWCALGKDCFLELAPDFVGDILWEHLEILQKE, which abundance fitness is on record?
**A.** Its abundance fitness is -0.893 ± 0.084.

**Q.** Which abundance fitness does the source give for GFTKEQQRLGIPKDPRQWTETHVRDWVMWAVNEFSLKGVDFQKFCMNGAAQCALGKDCFLELAPDFVGDILWEHLEILQKE here?
**A.** The abundance fitness was -0.923 ± 0.11.

**Q.** With GFTKEQQRLGIPKDPRQWTETHVRDWVMWAVNEFSLKGVDFQKFCMNGAARCALGKDCFLELAPDFVGDILWEHLEILQKE as the variant, how does the abundance fitness read?
**A.** The abundance fitness was -0.788 ± 0.051.
